In publication PMC7299284, “Studies in humanized mice and convalescent humans yield a SARS-CoV-2 antibody cocktail” (Science (New York, N.y.), 2020):

Molecular target: T1, SARS-CoV-2 spike RBD (as in the cryo-EM complex with REGN10933 and REGN10987 Fabs) (SARS-CoV-2, UniProt P0DTC2)
T1 construct: also called SARS-CoV-2 RBD
Test: cryo-EM structure; single-particle cryo-EM of SARS-CoV-2 spike RBD bound to Fab fragments of REGN10933 and REGN10987, nominal resolution 3.9 Å
Details: both partners purified

| Binder | binding result |
| --- | --- |
| Fab fragment of REGN10987 (Fab, V domains shown, also called REGN10987 Fab) VH: QVQLVESGGGVVQPGRSLRLSCAASGFTFSNYAMYWVRQAPGKGLEWVAVISYDGSNKYYADSVKGRFTISRDNSKNTLYLQMNSLRTEDTAVYYCASGSDYGDYLLVYWGQGTLVTVSS VL: QSALTQPASVSGSPGQSITISCTGTSSDVGGYNYVSWYQQHPGKAPKLMIYDVSKRPSGVSNRFSGSKSGNTASLTISGLQSEDEADYYCNSLTSISTWVFGGGTKLTVL | binds |
| Fab fragment of REGN10933 (Fab, V domains shown, also called REGN10933 Fab) VH: QVQLVESGGGLVKPGGSLRLSCAASGFTFSDYYMSWIRQAPGKGLEWVSYITYSGSTIYYADSVKGRFTISRDNAKSSLYLQMNSLRAEDTAVYYCARDRGTTMVPFDYWGQGTLVTVSS VL: DIQMTQSPSSLSASVGDRVTITCQASQDITNYLNWYQQKPGKAPKLLIYAASNLETGVPSRFSGSGSGTDFTFTISGLQPEDIATYYCQQYDNLPLTFGGGTKVEIK | binds |
